Starred links: 1 amine or outer side, 2 acyl side, 3 side chain; linkers in the order of their positions; H or OH if unused. Positions of bridges follow the written chain, without caps; N, C: chain ends. Non-standard residues stand in square brackets, D forms with d. 2Nal6(Ph4(NMorph)) = 2-amino-3-(6-(4-morpholinophenyl)naphthalen-2-yl)propanoic acid, O=C([C@H](Cc1ccc2cc(-c3ccc(N4CCOCC4)cc3)ccc2c1)N[*:1])[*:2]; TMAPF = 5-(4-(2-amino-2-carboxyethyl)phenoxy)-N,N,N-trimethylpentan-1-aminium, C[N+](C)(C)CCCCCOc1ccc(C[C@H](N[*:1])C(=O)[*:2])cc1; 6Br2Nal = 2-amino-3-(6-bromonaphthalen-2-yl)propanoic acid, O=C([C@H](Cc1ccc2cc(Br)ccc2c1)N[*:1])[*:2]; 6F2Nal = 2-amino-3-(6-fluoronaphthalen-2-yl)propanoic acid, O=C([C@H](Cc1ccc2cc(F)ccc2c1)N[*:1])[*:2]; 2Nal(6-OH) = N[C@@H](Cc1ccc2cc(O)ccc2c1)C(=O)O; Trp(7-Me) = Cc1cccc2c(C[C@H](N)C(=O)O)c[nH]c12; AEF = NCCOc1ccc(C[C@H](N)C(=O)O)cc1; 3Pal = N[C@@H](Cc1cccnc1)C(=O)O; Pen = CC(C)(S)[C@H](N)C(=O)O; Thp = NC1(C(=O)O)CCOCC1; Sar = CNCC(=O)O
T1: interleukin-23 receptor (IL-23R) (UniProt Q5VWK5 24-629, limits assumed)
T1 sequence (looked up): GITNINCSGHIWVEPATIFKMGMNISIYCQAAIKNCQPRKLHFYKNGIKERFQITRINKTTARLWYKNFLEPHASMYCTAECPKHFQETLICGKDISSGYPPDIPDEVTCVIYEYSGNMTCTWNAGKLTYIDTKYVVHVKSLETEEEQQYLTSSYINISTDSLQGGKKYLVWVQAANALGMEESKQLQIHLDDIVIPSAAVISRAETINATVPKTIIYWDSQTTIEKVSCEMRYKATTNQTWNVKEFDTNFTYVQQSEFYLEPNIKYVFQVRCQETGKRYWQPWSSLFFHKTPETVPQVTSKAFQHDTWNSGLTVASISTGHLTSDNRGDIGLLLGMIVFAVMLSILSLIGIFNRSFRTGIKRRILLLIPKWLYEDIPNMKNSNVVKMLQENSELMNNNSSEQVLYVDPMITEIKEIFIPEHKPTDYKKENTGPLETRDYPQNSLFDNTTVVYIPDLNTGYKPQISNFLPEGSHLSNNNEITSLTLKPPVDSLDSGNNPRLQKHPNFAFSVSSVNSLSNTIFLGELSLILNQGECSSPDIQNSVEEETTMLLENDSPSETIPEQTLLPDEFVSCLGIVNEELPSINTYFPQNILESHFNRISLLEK


Molecular target: T1, interleukin-23 receptor (IL-23R)
Experiment: cell-based or functional assay

| IL23R Reporter Assay IC50 | Binder |
| --- | --- |
| ≥ 100 nM | Ac-[dR][Pen]NT[Trp(7-Me)]K(Ac)[Pen][AEF][6Br2Nal][Thp]EN[Thp]-NH2 (disulfide 2-7 (inferred)) [SEQ ID NO: 444] |
| < 10 nM | Ac-[dR][Pen]NT[Trp(7-Me)]K(Ac)[Pen][AEF][6F2Nal][Thp]EN[3Pal][Sar]-NH2 (disulfide 2-7 (inferred)) [SEQ ID NO: 407] |
| < 10 nM | Ac-[dR][Pen]NT[Trp(7-Me)]K(Ac)[Pen][TMAPF][2Nal(6-OH)][Thp]EN[3Pal][Sar]-NH2 (disulfide 2-7 (inferred)) [SEQ ID NO: 59] |
| < 10 nM | Ac-X[Pen]NT[Trp(7-Me)]K(Ac)[Pen][AEF][2Nal(6-OH)][Thp]EN[3Pal][Sar]-NH2 (disulfide 2-7 (inferred); not fully specified (residue 1); printed as MeCO-k(d)-Pen(3)-N-T-7MeW-K(Ac)-Pen(3)-AEF-6OH2Nal-THP-E-N-3Pya-Sar-CONH2) [SEQ ID NO: 349] |
| < 10 nM | Ac-[dR][Pen]NT[Trp(7-Me)]K(Ac)[Pen][AEF][2Nal(6-OH)][Thp]EN[3Pal][Sar]-NH2 (disulfide 2-7 (inferred)) [SEQ ID NO: 442] |
| ≥ 100 nM | Ac-[dR][Pen]NT[Trp(7-Me)]K(Ac)[Pen][AEF][2Nal6(Ph4(NMorph))][Thp]EN[Thp]-NH2 (disulfide 2-7 (inferred)) [SEQ ID NO: 432] |
| < 10 nM | Ac-[Pen]NT[Trp(7-Me)]K(Ac)[Pen][AEF][2Nal(6-OH)][Thp]EN[3Pal][Sar]-NH2 (disulfide 1-6 (inferred)) [SEQ ID NO: 428] |
